Test [1] has as its target T1, Atypical chemokine receptor 2, wild type (ACKR2-WT) (human, UniProt O00590 1-384).
T1 construct: Atypical chemokine receptor 2 (ACKR2), human, wild type allele, expressed on the surface of CHO-k1 cells; also called CCBP-WT; source: CHO-k1 cells, transfected (lipofectamine), G418 selected, enriched with anti-PE MicroBeads; on cells
T1 sequence (looked up): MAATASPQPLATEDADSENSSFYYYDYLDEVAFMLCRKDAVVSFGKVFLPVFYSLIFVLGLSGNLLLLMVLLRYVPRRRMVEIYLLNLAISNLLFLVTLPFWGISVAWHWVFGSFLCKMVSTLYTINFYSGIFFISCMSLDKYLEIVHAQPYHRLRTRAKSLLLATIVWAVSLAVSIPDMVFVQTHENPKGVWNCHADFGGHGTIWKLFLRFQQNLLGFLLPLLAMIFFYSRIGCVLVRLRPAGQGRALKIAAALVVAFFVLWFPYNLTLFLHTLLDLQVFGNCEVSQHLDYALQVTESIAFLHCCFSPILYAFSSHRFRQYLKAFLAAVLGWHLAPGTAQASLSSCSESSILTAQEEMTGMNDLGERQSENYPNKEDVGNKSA
As to the kind of experiment: flow cytometry on cells; competition: transfected CHO-k1 cells incubated with unconjugated chemokine at 37 °C for 45 minutes, then stained with anti-human ACKR2 polyclonal IgG and PE secondary; blockage = 100 minus percent of ACKR2-positive cells; titration with non-linear analysis for Kd. To be noted: one partner purified.

For test [2], the target named is T2, Atypical chemokine receptor 2 variant V41A (ACKR2-V41A; rs2228467) (human, UniProt O00590 1-384, V41A).
T2 construct: Atypical chemokine receptor 2 (ACKR2), human, natural variant V41A (rs2228467), expressed on the surface of CHO-k1 cells; also called ACRK2-V41A; source: CHO-k1 cells, transfected (lipofectamine), G418 selected, enriched with anti-PE MicroBeads; on cells
T2 sequence (looked up): T1 sequence (looked up) with V41A
Described as above. The settings on record: one partner purified.

Residue numbers refer to the chain shown, from its start.

The text below walks through data of PMC7229167, “Atypical chemokine receptor ACKR2-V41A has decreased CCL2 binding, scavenging, and activation, supporting sustained inflammation and increased Alzheimer’s disease risk” (Scientific Reports, 2020).

B1: Chemokine ligand 4 (CCL4), unconjugated (ligand, UniProt P13236 24-92, looked up)
chain: APMGSDPPTACCFSYTARKLPRNFVVDYYETSSLCSQPAVVFQTKRSKQVCADPSESWVQEYVYDLELN
notes: Chemokine ligand 4 (CCL4), unconjugated; also called unconjugated CCL4; source: bought: PEPROTECH, Cat #300-.9
Consider B1, for which the equilibrium dissociation constant (Kd) is 600 nM in test [1] and 2030 nM in test [2].
